T1: full length human ACVR1 (R206H) on HEK293/BRE-luc/hACVR1-R206H-clone H2 cells (human, UniProt Q04771 21-509)
T1 construct: also called HEK293/hACVR1-R206H
T1 sequence: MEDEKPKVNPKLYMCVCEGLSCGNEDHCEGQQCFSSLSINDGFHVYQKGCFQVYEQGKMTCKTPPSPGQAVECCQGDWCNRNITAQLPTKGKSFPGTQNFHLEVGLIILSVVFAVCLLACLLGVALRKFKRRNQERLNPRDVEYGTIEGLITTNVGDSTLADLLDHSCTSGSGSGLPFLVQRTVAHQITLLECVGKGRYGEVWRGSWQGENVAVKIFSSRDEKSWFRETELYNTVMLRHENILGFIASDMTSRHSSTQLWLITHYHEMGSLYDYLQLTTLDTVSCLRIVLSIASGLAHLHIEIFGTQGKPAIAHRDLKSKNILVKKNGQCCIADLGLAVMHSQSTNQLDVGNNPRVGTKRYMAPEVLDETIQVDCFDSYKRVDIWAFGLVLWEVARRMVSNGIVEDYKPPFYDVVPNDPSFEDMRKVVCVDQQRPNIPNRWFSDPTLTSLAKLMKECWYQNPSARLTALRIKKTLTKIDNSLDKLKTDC

T2: human ACVR1 extracellular domain expressed with a C-terminal mouse IgG2a Fc tag (human)
T2 construct: also called hACVR1-mFc
T2 chain: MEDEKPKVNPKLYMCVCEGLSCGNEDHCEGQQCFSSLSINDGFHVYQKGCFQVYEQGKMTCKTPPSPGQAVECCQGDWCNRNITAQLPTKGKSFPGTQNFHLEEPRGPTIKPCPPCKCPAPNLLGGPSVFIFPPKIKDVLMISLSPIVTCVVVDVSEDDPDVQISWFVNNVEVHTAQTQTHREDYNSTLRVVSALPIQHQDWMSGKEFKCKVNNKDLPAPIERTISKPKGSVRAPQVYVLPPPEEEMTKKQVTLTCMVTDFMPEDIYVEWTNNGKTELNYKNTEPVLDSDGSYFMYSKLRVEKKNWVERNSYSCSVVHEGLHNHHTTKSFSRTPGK

T3: mouse ACVR1 extracellular domain expressed with a C-terminal myc-myc-hexahistidine tag (mouse)
T3 construct: also called mACVR1-MMH; mACVR1-mmh
T3 chain: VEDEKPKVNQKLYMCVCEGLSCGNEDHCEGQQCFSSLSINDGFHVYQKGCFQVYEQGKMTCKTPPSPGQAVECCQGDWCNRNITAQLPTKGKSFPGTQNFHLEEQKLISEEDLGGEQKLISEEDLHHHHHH

T4: human ACVR1 extracellular domain expressed with a C-terminal myc-myc-hexahistidine tag (human)
T4 construct: also called hACVR1-MMH
T4 chain: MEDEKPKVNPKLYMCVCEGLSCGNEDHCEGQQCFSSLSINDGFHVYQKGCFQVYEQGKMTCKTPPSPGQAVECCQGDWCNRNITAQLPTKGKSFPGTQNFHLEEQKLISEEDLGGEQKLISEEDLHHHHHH

T5: full length wild type human ACVR1 on HEK293/BRE-luc/hACVR1-wild type cells (human, UniProt Q04771 21-509)
T5 construct: also called HEK293/hACVR1-wt; hACVR1-wt
T5 sequence: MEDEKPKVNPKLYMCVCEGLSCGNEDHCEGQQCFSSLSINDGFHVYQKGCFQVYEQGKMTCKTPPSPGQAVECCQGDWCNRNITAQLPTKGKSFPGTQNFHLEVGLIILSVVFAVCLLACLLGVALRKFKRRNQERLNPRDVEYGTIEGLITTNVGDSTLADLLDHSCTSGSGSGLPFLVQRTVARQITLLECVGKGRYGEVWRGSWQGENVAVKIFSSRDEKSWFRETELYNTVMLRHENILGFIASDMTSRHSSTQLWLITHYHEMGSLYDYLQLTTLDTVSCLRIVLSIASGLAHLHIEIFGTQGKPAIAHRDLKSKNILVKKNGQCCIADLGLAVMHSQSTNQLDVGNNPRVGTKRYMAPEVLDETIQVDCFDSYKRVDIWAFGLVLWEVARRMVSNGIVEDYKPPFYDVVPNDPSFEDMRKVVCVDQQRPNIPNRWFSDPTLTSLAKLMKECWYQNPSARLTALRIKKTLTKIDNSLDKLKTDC


Experiments:
[1] = target: T1, full length human ACVR1 (R206H) on …; assay: flow cytometry, 66.6 nM antibody, HEK293/hACVR1-R206H cells
Protocol: (§1) Cells were fixed using BD CytoFix™ (Becton Dickinson, #554655) and analyzed on either Hypercyt® or IQue® Flow Cytometers (Intellicyt®). Unstained and secondary antibody alone controls were also tested for all cell lines. The results were analyzed using ForeCyt® (IntelliCyt®) software to determine the geometric means of fluorescence for viable cells and binding ratios were calculated by normalizing the geometric mean value of the test condition by the geometric mean value of the corresponding unstained cells.

[2] = target: T2, human ACVR1 extracellular domain …; assay: SPR (Biacore), mAb captured, 25 C
Protocol: (§2) Equilibrium dissociation constants (KD) for ACVR1 binding to purified anti-ACVR1 monoclonal antibodies were determined using a real-time surface plasmon resonance biosensor (SPR-Biacore), Biacore 4000. All binding studies were performed in 10 mM HEPES, 150 mM NaCl, 3 mM EDTA, and 0.05% v/v surfactant Tween-20, pH 7.4 (HBS-ET) running buffer at 25° C. and 37° C. The Biacore CM5 sensor surface was first derivatized by amine coupling with a monoclonal mouse anti-human Fc antibody (GE, #BR-1008-39 or REGN2567) to capture anti-ACVR1 monoclonal antibodies. […] ACVR1 reagents were then injected over anti-human Fc captured anti-ACVR1 monoclonal antibody surface for 2.5-3 minutes at a flow rate of 30 μL/minute, while the dissociation of monoclonal antibody bound ACVR1 reagent was monitored for 10-15 minutes in HBS-ET running buffer. Kinetic association rate constant (kₐ) and dissociation rate constant (kd) were determined by fitting the real-time sensorgrams to a 1:1 binding model using Scrubber 2.0c curve-fitting software. Binding dissociation equilibrium constants (KD) and dissociative half-lives (t½) were calculated from the kinetic rate constants as: […]

[3] = target: T3, mouse ACVR1 extracellular domain …; assay: SPR (Biacore), mAb captured, 25 C
Protocol: as §2

[4] = target: T4, human ACVR1 extracellular domain …; assay: SPR (Biacore), mAb captured, 25 C
Protocol: as §2

[5] = target: T2, human ACVR1 extracellular domain …; assay: SPR (Biacore), mAb captured, 37 C
Protocol: as §2

[6] = target: T3, mouse ACVR1 extracellular domain …; assay: SPR (Biacore), mAb captured, 37 C
Protocol: as §2

[7] = target: T4, human ACVR1 extracellular domain …; assay: SPR (Biacore), mAb captured, 37 C
Protocol: as §2

[8] = target: T1, full length human ACVR1 (R206H) on …; assay: cell-based or functional assay
[9] = target: T5, full length wild type human ACVR1 on …; assay: flow cytometry, 66.6 nM antibody, HEK293/hACVR1-wt cells
Protocol: as §1

[10] = target: T3, mouse ACVR1 extracellular domain …; assay: SPR (Biacore), mAb captured, 25 C; 25 C
Protocol: as §2

[11] = target: T1, full length human ACVR1 (R206H) on …; assay: flow cytometry, 70 nM antibody, HEK293/hACVR1-R206H cells
Protocol: as §1

MFI - Normalized to Unstained Control [1] | 100 nM Ag Bound (RU) [2] | Kd [2] | koff [2] | kon [2] | t½ [2] | 900 nM or 100 nM Ag Bound (RU) [3] | Kd [3] | koff [3] | 900 nM or 100 nM Ag Bound (RU) [4] | Kd [4] | koff [4] | kon [4] | t½ [4] | 100 nM Ag Bound (RU) [5] | Kd [5] | koff [5] | kon [5] | t½ [5] | 900 nM or 100 nM Ag Bound (RU) [7] | Binder | further results
235 fold | 268 RU | 12.3 nM | 0.00802 s⁻¹ | 652000 M⁻¹ s⁻¹ | 1.4 min | 41 RU | 836 nM | 0.575 s⁻¹ | 44 RU | 1020 nM | 0.42 s⁻¹ | 413000 M⁻¹ s⁻¹ | 0.03 min | 243 RU | 79.2 nM | 0.0577 s⁻¹ | 729000 M⁻¹ s⁻¹ | 0.2 min | 25 RU | mAb22125 (antibody, human IgG4 S228P, kappa, V domains shown) VH: QVQLVQSGAEVKKPGASVKVSCKASGYTFTGYYMHWVRQAPGQGLEWMGWINPNSVGTNFAQKFQGRVTMTRDTSISTAYMELSRLRSDDTAVYYCTRDGAAAGLFDYWGQGTLVTVSS VL: DIQMTQSPSSLSASVGDRVTITCRASQGINNYLAWYQQKPGKVPKLLIYAASTLQSGVPSRFSGSGSGTDFTLTISSLQPEDVATYYCQKFNSAPLTFGGGTKVEIKR | kon [3]: 688000 M⁻¹ s⁻¹; t½ [3]: 0.02 min; 900 nM or 100 nM Ag Bound (RU) [6]: 23 RU; IC50 [M], BRE-luc reporter, 3 nM hActivin A [8]: 1.9e-08 M; IC50 [M], BRE-luc reporter, 3 nM hBMP7 [8]: 1.6e-08 M; MFI - Normalized to Unstained Control [9]: 183 fold
4 fold | 264 RU | 11.4 nM | 0.000765 s⁻¹ | 66900 M⁻¹ s⁻¹ | 15 min | 94 RU | 171 nM | 0.00478 s⁻¹ | 93 RU | 145 nM | 0.00485 s⁻¹ | 33400 M⁻¹ s⁻¹ | 2.4 min | 317 RU | 30.1 nM | 0.0025 s⁻¹ | 83300 M⁻¹ s⁻¹ | 4.6 min | 86 RU | mAb22115 (antibody, human IgG4 S228P, kappa, V domains shown) VH: EVQLVESGGGLVQPGGSLRLSCAASGFTSSRYWMSWVRQAPGKGLEWLANINQDGSEKYYLESLRGRFTISRDNAKNSLYLQMNNLRAEDTAVYYCARDEEGYWGQGTLVTVSS VL: DVVMTQSLLSLSVTLGQPASISCRSSQSLVYSDGDTYLSWFQQRPGQSPRRLIYKVSHRDSGVPDRFRGSGSGTDFTLKISRVEAEDVGIYYCMQGTHWPPTFGQGTKVEIKR | kon [3]: 28000 M⁻¹ s⁻¹; t½ [3]: 2.4 min; 900 nM or 100 nM Ag Bound (RU) [6]: 85 RU; Kd [6]: 504 nM; koff [6]: 0.0297 s⁻¹; kon [6]: 58900 M⁻¹ s⁻¹; t½ [6]: 0.39 min; Kd [7]: 438 nM; koff [7]: 0.0308 s⁻¹; kon [7]: 70400 M⁻¹ s⁻¹; t½ [7]: 0.37 min; MFI - Normalized to Unstained Control [9]: 4 fold
– | 199 RU | 0.202 nM | 2.9e-05 s⁻¹ | 144000 M⁻¹ s⁻¹ | 398 min | – | – | – | 63 RU | 1.56 nM | 0.000135 s⁻¹ | 86800 M⁻¹ s⁻¹ | 86 min | 250 RU | 0.669 nM | 0.000189 s⁻¹ | 282000 M⁻¹ s⁻¹ | 61 min | 82 RU | mAb27242 (antibody, human IgG4 S228P, kappa, V domains shown) VH: QVQLQQWGAGLLKPSETLSLTCAVYNGSFSSFYWSWIRQPPGKGLEWLGEINHRGRTNNNPSLASRVTISVDTSKSQFSLRLTSVTAADTATYYCTAHTRGFLYWGQGTRVTVSS VL: DIQMTQSPSSLSASVGDRVTITCQASQDINNYLNWYQQKPGQAPNLLIYDVFNLLPGVPSRFSGSGSGTDFSFTISSLQPEDIATYYCQHYDDLPLTFGGGTTVAIRR | Kd [7]: 5.77 nM; koff [7]: 0.00083 s⁻¹; kon [7]: 144000 M⁻¹ s⁻¹; t½ [7]: 14 min; % Inhibition, BRE-luc reporter, 2 nM hBMP7 [8]: 109%; IC50 [M], BRE-luc reporter, 2 nM hBMP7 [8]: 1.2e-09 M; Kd [10]: 602 nM; koff [10]: 0.144 s⁻¹; kon [10]: 238000 M⁻¹ s⁻¹; t½ [10]: 0.08 min; MFI - Normalized to Unstained Control [11]: 1730 fold

Reference: patent US20210253716A1 (Regeneron, published 2021)
